Here are results for 23 substances from patent publication US20080090771A1, “ABUSE-RESISTANT H[…], COMPOSITIONS AND METHODS OF USING THE SAME” (SHIRE LLC, priority 2006, published 2008).

No end group written: not given here.

Data set [1] is described as follows: Intranasal bioavailability of hydrocodone conjugates in rats. The settings on record: relative to hydrocodone.
Data set [2] can be described thus: Oral bioavailability of hydrocodone conjugates in rats. The settings on record: for bioavailability (% HC) oral AUC / bioavailability (% HC) oral Cmax: rats, relative to hydrocodone; for Oral:IN Index AUC: ratio of oral to intranasal AUC (% HC); for Oral:IN Index Cmax: ratio of oral to intranasal Cmax (% HC).

With Leu-Pro-Phe-HC, in data set [1], the “bioavailability (% HC) IN AUC” value stood at 83 % HC and the “bioavailability (% HC) IN Cmax” value was found to be 101 % HC. In addition, in data set [2], the “bioavailability (% HC) oral AUC” value is reported as 106 % HC, the “bioavailability (% HC) oral Cmax” value amounted to 125 % HC, the “Oral:IN Index AUC” value came to 1.28 and the “Oral:IN Index Cmax” value is reported as 1.24.

In the case of “Gly-Gly-Glu-Glu-Ile-HC (GGEEI-hydrocodone)”, in data set [1], the “bioavailability (% HC) IN AUC” value amounted to 66 % HC and the “bioavailability (% HC) IN Cmax” value is reported as 77 % HC. In data set [2], the “bioavailability (% HC) oral AUC” value was 96 % HC, the “bioavailability (% HC) oral Cmax” value is given as 119 % HC, the “Oral:IN Index AUC” value came out at 1.45 and the “Oral:IN Index Cmax” value is on record as 1.55.

For “Asp-Asp-Gly-Gly-Ile-HC (DDGGI-hydrocodone)”, in data set [1], the “bioavailability (% HC) IN AUC” value was determined as 48 % HC and the “bioavailability (% HC) IN Cmax” value is given as 67 % HC. Moreover, in data set [2], the “bioavailability (% HC) oral AUC” value is listed as 82 % HC, the “bioavailability (% HC) oral Cmax” value is 80 % HC, the “Oral:IN Index AUC” value worked out at 1.71 and the “Oral:IN Index Cmax” value is on record as 1.19.

On to “Lys-Lys-Pro-Pro-Ile-HC (KKPPI-hydrocodone)”, for which, in data set [1], the “bioavailability (% HC) IN AUC” value was 68 % HC and the “bioavailability (% HC) IN Cmax” value was determined as 94 % HC. In data set [2], the “bioavailability (% HC) oral AUC” value was determined as 80 % HC, the “bioavailability (% HC) oral Cmax” value was 76 % HC, the “Oral:IN Index AUC” value was 1.18 and the “Oral:IN Index Cmax” value amounted to 0.81.

Consider Glu-Glu-Ile-HC, for which, in data set [1], the “bioavailability (% HC) IN AUC” value turned out to be 52 % HC and the “bioavailability (% HC) IN Cmax” value was 59 % HC. In addition, in data set [2], the “bioavailability (% HC) oral AUC” value stood at 83 % HC, the “bioavailability (% HC) oral Cmax” value is on record as 112 % HC, the “Oral:IN Index AUC” value came out at 1.60 and the “Oral:IN Index Cmax” value stood at 1.90.

As for “Asp-Asp-Asp-Asp-Ile-HC (DDDDI-hydrocodone)”, in data set [1], the “bioavailability (% HC) IN AUC” value stood at 36 % HC and the “bioavailability (% HC) IN Cmax” value turned out to be 64 % HC. Moreover, in data set [2], the “bioavailability (% HC) oral AUC” value is 79 % HC, the “bioavailability (% HC) oral Cmax” value is given as 110 % HC, the “Oral:IN Index AUC” value was found to be 2.19 and the “Oral:IN Index Cmax” value was determined as 1.72.

For the substance Pro-Ile-Ile-HC, in data set [1], the “bioavailability (% HC) IN AUC” value is given as 86 % HC and the “bioavailability (% HC) IN Cmax” value is recorded as 102 % HC. In data set [2], the “bioavailability (% HC) oral AUC” value was found to be 104 % HC, the “bioavailability (% HC) oral Cmax” value amounted to 99 % HC, the “Oral:IN Index AUC” value was 1.21 and the “Oral:IN Index Cmax” value is given as 0.97.

On to “Glu-Glu-Phe-Phe-Ile-HC (EEFFI-hydrocodone)”, for which, in data set [1], the “bioavailability (% HC) IN AUC” value came to 68 % HC and the “bioavailability (% HC) IN Cmax” value was 76 % HC. Moreover, in data set [2], the “bioavailability (% HC) oral AUC” value is on record as 96 % HC, the “bioavailability (% HC) oral Cmax” value was found to be 129 % HC, the “Oral:IN Index AUC” value turned out to be 1.41 and the “Oral:IN Index Cmax” value stood at 1.70.

Asp-Asp-Ile-HC: in data set [1], the “bioavailability (% HC) IN AUC” value was 59 % HC and the “bioavailability (% HC) IN Cmax” value worked out at 93 % HC. In data set [2], the “bioavailability (% HC) oral AUC” value amounted to 280 % HC, the “bioavailability (% HC) oral Cmax” value is recorded as 238 % HC, the “Oral:IN Index AUC” value is on record as 4.75 and the “Oral:IN Index Cmax” value came to 2.56.

With “Lys-Lys-Asp-Asp-Ile-HC (KKDDI-hydrocodone)”, in data set [1], the “bioavailability (% HC) IN AUC” value is listed as 39 % HC and the “bioavailability (% HC) IN Cmax” value was 56 % HC. Further, in data set [2], the “bioavailability (% HC) oral AUC” value is on record as 90 % HC, the “bioavailability (% HC) oral Cmax” value was 121 % HC, the “Oral:IN Index AUC” value was 2.31 and the “Oral:IN Index Cmax” value was determined as 2.16.

For the substance Pro-Pro-Leu-HC, in data set [1], the “bioavailability (% HC) IN AUC” value stood at 46 % HC and the “bioavailability (% HC) IN Cmax” value is given as 48 % HC. In addition, in data set [2], the “bioavailability (% HC) oral AUC” value was determined as 94 % HC, the “bioavailability (% HC) oral Cmax” value is recorded as 108 % HC, the “Oral:IN Index AUC” value was 2.04 and the “Oral:IN Index Cmax” value turned out to be 2.25.

For “Asp-Asp-Pro-Pro-Ile-HC (DDPPI-hydrocodone)”, in data set [1], the “bioavailability (% HC) IN AUC” value stood at 45 % HC and the “bioavailability (% HC) IN Cmax” value came to 80 % HC. Moreover, in data set [2], the “bioavailability (% HC) oral AUC” value worked out at 92 % HC, the “bioavailability (% HC) oral Cmax” value is reported as 95 % HC, the “Oral:IN Index AUC” value came to 2.04 and the “Oral:IN Index Cmax” value turned out to be 1.19.

“Glu-Glu-Phe-Phe-Phe-Hydrocodone (EEFFF-hydrocodone) [Glu-Glu-Phe-Phe-Phe-HC]”: in data set [1], the “bioavailability (% HC) IN AUC” value is 27 % HC and the “bioavailability (% HC) IN Cmax” value amounted to 47 % HC. Besides, in data set [2], the “bioavailability (% HC) oral AUC” value stood at 83 % HC, the “bioavailability (% HC) oral Cmax” value stood at 89 % HC, the “Oral:IN Index AUC” value came to 3.07 and the “Oral:IN Index Cmax” value turned out to be 1.89.

Take “Glu-Glu-Asp-Asp-Ile-HC (EEDDI-hydrocodone)”: in data set [1], the “bioavailability (% HC) IN AUC” value amounted to 53 % HC and the “bioavailability (% HC) IN Cmax” value is on record as 81 % HC. Also, in data set [2], the “bioavailability (% HC) oral AUC” value stood at 108 % HC, the “bioavailability (% HC) oral Cmax” value is 129 % HC, the “Oral:IN Index AUC” value came out at 2.04 and the “Oral:IN Index Cmax” value worked out at 1.59.

For the substance Lys-Lys-Ile-HC, in data set [1], the “bioavailability (% HC) IN AUC” value is listed as 68 % HC and the “bioavailability (% HC) IN Cmax” value was found to be 94 % HC. Also, in data set [2], the “bioavailability (% HC) oral AUC” value came out at 80 % HC, the “bioavailability (% HC) oral Cmax” value was found to be 76 % HC, the “Oral:IN Index AUC” value came to 1.18 and the “Oral:IN Index Cmax” value is given as 0.81.

On to Tyr-Tyr-Ile-HC, for which, in data set [1], the “bioavailability (% HC) IN AUC” value is reported as 20 % HC and the “bioavailability (% HC) IN Cmax” value stood at 34 % HC. In data set [2], the “bioavailability (% HC) oral AUC” value was determined as 145 % HC, the “bioavailability (% HC) oral Cmax” value is 234 % HC, the “Oral:IN Index AUC” value was found to be 7.25 and the “Oral:IN Index Cmax” value is 6.88.

As for Pro-Leu-Ile-HC, in data set [1], the “bioavailability (% HC) IN AUC” value turned out to be 87 % HC and the “bioavailability (% HC) IN Cmax” value worked out at 101 % HC. In addition, in data set [2], the “bioavailability (% HC) oral AUC” value was determined as 141 % HC, the “bioavailability (% HC) oral Cmax” value is listed as 172 % HC, the “Oral:IN Index AUC” value turned out to be 1.62 and the “Oral:IN Index Cmax” value is 1.70.

In the case of “Tyr-Tyr-Pro-Pro-Ile-HC (YYPPI-hydrocodone)”, in data set [1], the “bioavailability (% HC) IN AUC” value is listed as 10 % HC and the “bioavailability (% HC) IN Cmax” value amounted to 10 % HC. Also, in data set [2], the “bioavailability (% HC) oral AUC” value is 218 % HC and the “bioavailability (% HC) oral Cmax” value worked out at 213 % HC.

Regarding Tyr-Tyr-Phe-Phe-Ile-HC, in data set [1], the “bioavailability (% HC) IN AUC” value stood at 26 % HC and the “bioavailability (% HC) IN Cmax” value turned out to be 34 % HC. Further, in data set [2], the “bioavailability (% HC) oral AUC” value stood at 113 % HC, the “bioavailability (% HC) oral Cmax” value is on record as 63 % HC, the “Oral:IN Index AUC” value is given as 4.35 and the “Oral:IN Index Cmax” value stood at 1.85.

Turning to “Gly-Gly-Pro-Pro-Ile-HC (GGPPI-hydrocodone)”, in data set [1], the “bioavailability (% HC) IN AUC” value was determined as 44 % HC and the “bioavailability (% HC) IN Cmax” value amounted to 56 % HC. In data set [2], the “bioavailability (% HC) oral AUC” value amounted to 94 % HC, the “bioavailability (% HC) oral Cmax” value turned out to be 121 % HC, the “Oral:IN Index AUC” value is recorded as 2.14 and the “Oral:IN Index Cmax” value was found to be 2.16.

Turning to “Asp-Asp-Phe-Phe-Ile-HC (DDFFI-hydrocodone)”, in data set [1], the “bioavailability (% HC) IN AUC” value is 56 % HC and the “bioavailability (% HC) IN Cmax” value is recorded as 62 % HC. In data set [2], the “bioavailability (% HC) oral AUC” value was found to be 115 % HC, the “bioavailability (% HC) oral Cmax” value worked out at 167 % HC, the “Oral:IN Index AUC” value worked out at 2.05 and the “Oral:IN Index Cmax” value is listed as 2.69.

As for “Glu-Glu-Gly-Gly-Ile-Hydrocodone (EEGGI-hydrocodone) [Glu-Glu-Gly-Gly-Ile-HC]”, in data set [1], the “bioavailability (% HC) IN AUC” value was 50 % HC and the “bioavailability (% HC) IN Cmax” value was found to be 56 % HC. Also, in data set [2], the “bioavailability (% HC) oral AUC” value was 81 % HC and the “bioavailability (% HC) oral Cmax” value is recorded as 77 % HC.

On to “Glu-Glu-Gly-Gly-Phe-HC (EEGGF-hydrocodone)”, for which, in data set [1], the “bioavailability (% HC) IN AUC” value was 89 % HC and the “bioavailability (% HC) IN Cmax” value came out at 97 % HC. Further, in data set [2], the “bioavailability (% HC) oral AUC” value is reported as 110 % HC, the “bioavailability (% HC) oral Cmax” value is reported as 112 % HC, the “Oral:IN Index AUC” value is 1.24 and the “Oral:IN Index Cmax” value is reported as 1.15.
